From the RNAGym collection of RNA variant scans (doi:10.1073/pnas.2313332121)
This sample holds only a part of the variants without activity.

B1: TPR 5TU (parent)
chain: GGAUCUUCUCGAUCUAACAAAAAAGACAAAUCUGCCACAAAGCUUGAGAGCAUCUUCGGAUGCAGAGGCGGCAGCCUUCGGUGGCGCGAUAGCGCCAACGUUCUCAACUAUGACACGCAAAACGCGUGCUCCGUUGAAUGGAGUUUAUCAUG

Variants of: B1
Test: polymerase ribozyme fitness, log enrichment relative to wild type (log ratio); higher = more active; in vitro selection for triplet polymerase activity
In short: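 To select mutant libraries of each subunit of a heterodimeric triplet polymerase ribozyme, built by PCR and transcribed, each was annealed with a biotinylated primer, partner subunit and triplets, then incubated frozen at −7 °C. Extended constructs were gel-excised, captured on streptavidin beads and amplified by RT-PCR, in one round carried out in triplicate. Illumina sequencing of input and output libraries kept genotypes with ≥10 input reads and ≥1 read per output. Fitness is the base-2 logarithm of genotype enrichment relative to wild-type enrichment, from inverse-variance-weighted replicate averages.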

Variant	polymerase ribozyme fitness (log ratio)
A47U C51U C87U A113U G152A	-3.99
A47C C57A C105A G126A	-3.51
U45A G58A G83A U148C	≤ -4.2
G42C U61A G88A C95U U104G	≤ -4.2
C43U U78A C85A A115C	≤ -4.2
U45A U56G A66C G67C G71U C85G G88U A89G C99U A110G C132G	≤ -4.2
A47G C87A U90G A98G C99A G117C C149A	≤ -4.2
A47C C72G G83U A142G	≤ -4.2
U45G C85U	-0.0479
U45G G50A A73C C93U C96U C99A C108A G112C G124U U127G A142G C149G	≤ -4.2
C43U A89U G94U C105G C132A U151C	≤ -4.2
G46A G50A	-0.957
C43G G80U G84A C93A U134C	≤ -4.2
U44A G81A A137G	≤ -4.2
U45A A52G C118A	-4.18
G42U C57A	≤ -4.2
A47C C75G U77A G88A A106U	≤ -4.2
A47C U151G G152A	-4.19
G46U U77G C87U A89U C93A G124U	≤ -4.2
C43G A49C G68C C72U A97U	≤ -4.2
U45C G84A	-1.08
G46C A64G A91C	≤ -4.2
C43G A49C C76A G84A C105G	≤ -4.2
A47C U55A C57A G84U C96U C99U G136A G143C	≤ -4.2

Variant	polymerase ribozyme fitness (log ratio)
C43U G86U C125A	≤ -4.2
A47C G83A C118U G133C U148C	≤ -4.2
A47C C85U C118U U130A	-3.62
G42C U55A G92C A115U A150U	≤ -4.2
U44A G68U G92U A98G C99G	≤ -4.2
C43U C93G U109G	≤ -4.2
C43G G67U G83U C93G C103U C116A	≤ -4.2
U44G G70C G140U	≤ -4.2
C43U U61A G80A G94U A106C A122U	≤ -4.2
C43U C85U G88U C96A C123G G124C C129U G133C U139C	≤ -4.2
A47C U56A U78A U90G	≤ -4.2
A47G G59A	0.381
U44A C93U C99A U111G A138G G152U	-3.36
G46A G59U	0.917
G46C A110G	≤ -4.2
C43U A47C U56A U78G C87G	≤ -4.2
A47C C63A G83A	-1.37
G46C G50C G59U C118U G126C	≤ -4.2
U45G A137C	-4.14
G42C C54A A64C U77A G83C G126A U145A	≤ -4.2
G46A U55A C63U U111C C125A	≤ -4.2
C43G A60C G62A C96U U102G	≤ -4.2
A47C C57A G84A U101C	-0.765
A47C C69A C87U G100U A121G G143U	≤ -4.2

Variant	polymerase ribozyme fitness (log ratio)
A47G U82G C95G	-3.89
G46A G50C A52C C69A	≤ -4.2
A47G G62U U145C U151A	≤ -4.2
G46A A52C U61G	-0.687
C43U G46A U90C C95U A106U	≤ -4.2
G46C C75G G88A C114U	≤ -4.2
U44C A89U C103A A120U	≤ -4.2
A47U C87U A91U C95U C114G A120C	≤ -4.2
G46U G58U A89U U102G C118G C129A G152U	≤ -4.2
A47C C85G C96U C125U	≤ -4.2
G42C U44A U90G G140U A147U	≤ -4.2
A47C C54A C76U C85G A106U G143C	≤ -4.2
A47C A73U G124C	-3.78
U45A U77G G86U U104A C123A	≤ -4.2
U45G C57A	0.374
G46U A98G	0.0194
U44A A49U C72G C79G G92U A150G	≤ -4.2
G46A A97U U109G A121G U135C	≤ -4.2
G46A C96U U134G A138G	≤ -4.2
A47C C103G U135G	≤ -4.2
C43A G50A A106G	≤ -4.2
C43A A115U C118G	≤ -4.2
G46U A64U C76A C87A G126U	≤ -4.2
A47G G68A C72U G81A A89G U148A	≤ -4.2

Variant	polymerase ribozyme fitness (log ratio)
U44A G48C G59A U82C C116G C123U U134C	≤ -4.2
G46U G83A G143C	-4.16
U45A G67A C79A A91U A121G	≤ -4.2
G42C C51G U56A G83A C105U A122U U148A	≤ -4.2
U45A A64U G67C G74A G83A A120G	≤ -4.2
A47U A49G A98G U101A	≤ -4.2
U44A G50C	≤ -4.2
A47U C95U	-0.679
U44A C95U C96G A120C	≤ -4.2
G42C U148C	≤ -4.2
C43A G94C G143U	≤ -4.2
G46A U82C C95U C125G	-1.73
U45G C93A C116U	-2.88
C43G A49C C51U G62A G88A A91G C125U A137G	≤ -4.2
A47U C96A G126A C129A A137U	≤ -4.2
G42C C43A U55G C57U A66C A137C G141C	≤ -4.2
C43U U82G U101G	-4.04
G46U A60U G92C U139G	≤ -4.2
U44A A73U C105G A120G	≤ -4.2
A47C U61C C96U	-3.35
U44G G50A C57G C72G C114A G140C	≤ -4.2
A47G C93A C131U U134C	-0.603
U45A G83C	-3.51
U45A G48U G50A G59C G68U C96U C131A A137C G152A	≤ -4.2

Variant	polymerase ribozyme fitness (log ratio)
A47G A98G A115G C123G U130A	-3.77
A47C C57A	-0.176
U45G C87U U111G A147C	≤ -4.2
G46C U101G A107U A137C	-4.12
A47U A97C	0.501
U45G A52U U55A A73U C85U G117A C149A	≤ -4.2
U45A G46C A98U	≤ -4.2
U44A C54A C75G G92U U145C	≤ -4.2
G46C U53A G92U U111G U134C	≤ -4.2
U44A A49C C93U C123G U130G	≤ -4.2
A47G C85G U90C G124U	≤ -4.2
C43A G83C U90G G140U	≤ -4.2
G46U U61A G92U C96A A137G	≤ -4.2
U44A U55A C75A G84A C105U	≤ -4.2
U45A U55A	-2.95
G46A C85A C87U C99A	≤ -4.2
U45C G46A U61G G62C C76A	≤ -4.2
A47U C114U	-1.72
G42U G80A U104C	≤ -4.2
U45G G94A A137G	-2.23
U44A G46C C87U	≤ -4.2
A47G C69A A122G	-3.43
U44A G62A G84A U134A	≤ -4.2
C43A C69G G92C	≤ -4.2

Variant	polymerase ribozyme fitness (log ratio)
G46C C93U	-2.47
G46U A120C	-0.32
G46U G83U A119U C123A U145C	-3.34
U44A C131G	≤ -4.2
C43U U53G	≤ -4.2
A47C G59A G62C G67C G68C C99U A107U C114A A121G	≤ -4.2
A47G U90A	-3.82
U45A G46C C85G G88C C93U A115C A150G	≤ -4.2
G46A A52G G86U A91G A98U C114G	≤ -4.2
A47C C51U U53A C54A G141U	-4.13
G46C U61A C63U U82A A122G	≤ -4.2
A47G U55A C79G C93U	≤ -4.2
A47C C51U C54U C72U G84U	-3.18
A47G C57U U109G	-0.869
A47U C76U A119C U139G	-2.8
U44A U55A C69G G86U G141A	-4.2
A47C G50A U53G C69G U77A C85A C103G A113G G136C	≤ -4.2
U45G C79G G83U C85G U102C	≤ -4.2
A47G G62U A142G U146G	-4.12
A47U C54U U56A G84C C99A C108U C114U G126U	≤ -4.2
A47G C87U U101C	0.535
U44A U134A	≤ -4.2
G42C C95A C99G A107U	≤ -4.2
U45A C57A C95U	-2.12

Variant	polymerase ribozyme fitness (log ratio)
C43U U61G G94U C116U U144G C149G	≤ -4.2
U45A C93U	-3.15
U45G C75G C87A A120C G141C	≤ -4.2
G46A A91G G136U	≤ -4.2
A47U G62A U127C G133U	≤ -4.2
U45A A106G	-1.7
G42C C43U C54U A98G A120G	≤ -4.2
U45A G62C A107U	≤ -4.2
G42U A60G U139C U148A	-4.08
A47C A150U	-0.247
A47C G68A C96G C99A	≤ -4.2
A47G U90C G92C G128U A137C A147C	≤ -4.2
G42C U53A G83C G126U	≤ -4.2
G46C C57U U61G C75G A119U G141A	≤ -4.2
U44G A49U G84A U90G C131U U135G G136A	≤ -4.2
U44G G70C G83A C116A G152A	≤ -4.2
U44A C54U U82G C87A C123U	≤ -4.2
U45G C85G C93U	≤ -4.2
G46A G86C C118U A122U	-3.45
C43G U44A G58A G88U C95U U135G	≤ -4.2
G42C U53A C79U C85G A89U C125U	≤ -4.2
U45G U53A C85U	-1.63
G46C A49U U56A G86A C87A C103G A147U	≤ -4.2
